Experiment in all cases: cell-based or functional assay
Assay [1] deals with human glucagon receptor (human) (UniProt P47871).
The target of assay [2] is T1, human GIP receptor (human) (UniProt P48546).
T1 sequence (looked up): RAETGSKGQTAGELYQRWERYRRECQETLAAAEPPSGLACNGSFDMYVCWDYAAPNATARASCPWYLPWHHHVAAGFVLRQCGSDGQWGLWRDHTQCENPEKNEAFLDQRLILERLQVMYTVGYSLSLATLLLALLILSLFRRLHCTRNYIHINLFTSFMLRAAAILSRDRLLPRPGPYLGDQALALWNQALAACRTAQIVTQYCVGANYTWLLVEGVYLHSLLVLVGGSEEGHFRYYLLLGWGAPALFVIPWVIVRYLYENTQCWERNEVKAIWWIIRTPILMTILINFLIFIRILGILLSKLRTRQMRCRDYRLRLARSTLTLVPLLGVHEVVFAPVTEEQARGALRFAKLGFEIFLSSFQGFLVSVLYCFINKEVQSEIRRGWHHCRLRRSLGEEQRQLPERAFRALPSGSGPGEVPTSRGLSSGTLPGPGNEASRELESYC

Assay [3] deals with hGLP-1R (Homo sapiens, UniProt P43220).
Sequence of hGLP-1R (P43220 24-463): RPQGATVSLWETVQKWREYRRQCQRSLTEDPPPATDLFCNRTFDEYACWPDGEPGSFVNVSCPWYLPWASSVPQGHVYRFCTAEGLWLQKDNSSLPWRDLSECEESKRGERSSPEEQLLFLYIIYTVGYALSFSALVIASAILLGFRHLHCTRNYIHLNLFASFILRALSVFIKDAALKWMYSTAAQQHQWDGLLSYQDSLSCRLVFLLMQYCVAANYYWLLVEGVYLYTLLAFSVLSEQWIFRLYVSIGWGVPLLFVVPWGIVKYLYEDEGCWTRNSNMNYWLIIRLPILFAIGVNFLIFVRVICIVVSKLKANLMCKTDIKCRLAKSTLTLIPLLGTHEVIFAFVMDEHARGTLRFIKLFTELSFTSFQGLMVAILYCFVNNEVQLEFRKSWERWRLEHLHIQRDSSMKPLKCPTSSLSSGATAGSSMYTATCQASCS

Sequence of human glucagon receptor (human) (P47871 26-477): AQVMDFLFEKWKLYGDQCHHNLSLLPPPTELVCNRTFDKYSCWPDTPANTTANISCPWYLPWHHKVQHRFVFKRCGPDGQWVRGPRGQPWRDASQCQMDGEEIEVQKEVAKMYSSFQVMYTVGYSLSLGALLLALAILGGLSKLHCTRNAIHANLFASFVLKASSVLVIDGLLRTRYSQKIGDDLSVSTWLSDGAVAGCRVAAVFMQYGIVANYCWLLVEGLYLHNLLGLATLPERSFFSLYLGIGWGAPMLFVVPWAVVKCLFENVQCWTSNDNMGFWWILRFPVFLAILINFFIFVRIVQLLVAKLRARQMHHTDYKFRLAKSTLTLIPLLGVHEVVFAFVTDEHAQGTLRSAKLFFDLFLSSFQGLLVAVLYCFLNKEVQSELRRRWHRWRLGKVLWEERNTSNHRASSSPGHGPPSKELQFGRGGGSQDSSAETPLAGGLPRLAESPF

B1: Example 180 (peptide)
chain: YXQGTFTSDFSXXLDKKAQXAFIEYLLEXGESSGAPPPSGT
modifications: Aib, Orn, αMeL, acylated K, C-terminal amide; synthetic construct; SITE 2: note = 2-Aminoisobutyric Acid; SITE 12: note = L-ornithine; SITE 13: note = alpha-methyl-leucine; SITE 17: note = Lysine is chemically modified through conjugation of the epsilon-amino group of the Lysine side chain with (2-[2-(2-Amino-ethoxy)-ethoxy]-acetyl)2-(gamma-Glu)
For the molecule B1, the results for the Relative cAMP EC50, nM (0.1% casein) in assay [1], in assay [2] and in assay [3] were 2.44 nM, 0.14 nM and 5.08 nM, respectively. Moreover, the values for the cAMP Rel EC50, nM (1% HSA) in assay [1], in assay [2] and in assay [3] were 1320 nM, 24 nM and 891 nM, respectively.

B2: Example 213 (peptide)
chain: YXQGTFTSDFSXXLDKKAQXAFIEYLLEAGPSSGAPPPSGT
modifications: non-natural residues, AEEA-γGlu-C18 diacid acylation; synthetic construct; SITE 2: note = 2-Aminoisobutyric Acid; SITE 12: note = L-ornithine; SITE 13: note = alpha-methyl-leucine; SITE 17: note = Lysine is chemically modified through conjugation of the epsilon-amino group of the Lysine side chain with (2-[2-(2-Amino-ethoxy)-ethoxy]-acetyl)-(gamma-Glu)
For B2, the Relative cAMP EC50 in assay [1] was determined as 3.61 nM; in assay [2], 0.124 nM; in assay [3], 1.9 nM.

B3: Example 210 (peptide)
chain: YXQGTFTSDFSXXLDKKAQXAFIEYLLEAGPSSGAPPPSGT
modifications: non-natural residues, lysine acylation, C-terminal amide; synthetic construct; SITE 2: note = 2-Aminoisobutyric Acid; SITE 12: note = L-ornithine; SITE 13: note = alpha-methyl-leucine; SITE 17: note = Lysine is chemically modified through conjugation of the epsilon-amino group of the Lysine side chain with (2-[2-(2-Amino-ethoxy)-ethoxy]-acetyl)-(gamma-Glu)
For B3, the Relative cAMP EC50 in assay [1] turned out to be 2.81 nM; in assay [2], 0.153 nM; in assay [3] it was 1.44 nM.

B4: Example 182 (peptide)
chain: YXQGTFTSDFSXXLDKKAQXAFIEYLLEXGHSSGAPPPSGT
modifications: Aib, Orn, alpha-methyl-Leu, lipidated Lys, C-terminal amide; synthetic construct; SITE 2: note = 2-Aminoisobutyric Acid; SITE 12: note = L-ornithine; SITE 13: note = alpha-methyl-leucine; SITE 17: note = Lysine is chemically modified through conjugation of the epsilon-amino group of the Lysine side chain with (2-[2-(2-Amino-ethoxy)-ethoxy]-acetyl)2-(gamma-Glu)
As for B4, the values for the Relative cAMP EC50, nM (0.1% casein) in assay [1], in assay [2] and in assay [3] were 5.33 nM, 0.0781 nM and 4.8 nM, respectively. The cAMP Rel EC50, nM (1% HSA) in assay [1] stood at 1480 nM; in assay [2], 9.95 nM; in assay [3] it was 398 nM.

B5: Example 190 (peptide)
chain: YXQGTFTSDXSXXLDKKAQXAFIEYLLEXGHSSGAPPPSGS
modifications: Aib, F(4CN), Orn, αMeL; lysine acylated C18 diacid; amide; synthetic construct; SITE 2: note = 2-Aminoisobutyric Acid; SITE 10: note = 4-cyano-L-phenylalanine; SITE 12: note = L-ornithine; SITE 13: note = alpha-methyl-leucine; SITE 17: note = Lysine is chemically modified through conjugation of the epsilon-amino group of the Lysine side chain with (2-[2-(2-
Consider B5, for which the Relative cAMP EC50, nM (0.1% casein) in assay [1] was 2.95 nM; in assay [2], 0.306 nM; in assay [3] it was 1.41 nM. Also, the results for the cAMP Rel EC50, nM (1% HSA) in assay [1], in assay [2] and in assay [3] were 331 nM, 59.4 nM and 172 nM, respectively.

B6: Example 161 (peptide)
chain: YXQGTFTSDFSXXLDKKAQXAFIEYLLEGGESSGAPPPGGS
modifications: non-natural residues, lysine acylation, C-terminal amide; synthetic construct; SITE 2: note = 2-Aminoisobutyric Acid; SITE 12: note = L-ornithine; SITE 13: note = alpha-methyl-leucine; SITE 17: note = Lysine is chemically modified through conjugation of the epsilon-amino group of the Lysine side chain with (2-[2-(2-Amino-ethoxy)-ethoxy]-acetyl)-(gamma-Glu)
Regarding B6, the Relative cAMP EC50, nM (0.1% casein) in assay [1] is 4.83 nM; in assay [2], 0.555 nM; in assay [3], 5.22 nM. Also, the cAMP Rel EC50, nM (1% HSA) in assay [1] turned out to be 902 nM; in assay [2], 87.3 nM; in assay [3] it was 963 nM.

B7: Example 206 (peptide)
chain: YXQGTFTSDFSXXLDKKAQXAFIEYLLEAGPSSGAPPPEGE
modifications: Aib, Orn, αMeL, D-Ala; AEEA-γGlu-C18 diacid acyl; amide; synthetic construct; SITE 2: note = 2-Aminoisobutyric Acid; SITE 12: note = L-ornithine; SITE 13: note = alpha-methyl-leucine; SITE 17: note = Lysine is chemically modified through conjugation of the epsilon-amino group of the Lysine side chain with (2-[2-(2-Amino-ethoxy)-ethoxy]-acetyl)-(gamma-Glu)
Consider B7, for which the Relative cAMP EC50 in assay [1] was 2.2 nM; in assay [2], 0.224 nM; in assay [3], 2.77 nM. The cAMP Rel EC50, nM (1% HSA) in assay [1] came to 545 nM; in assay [2] it was 38.8 nM; in assay [3], 372 nM.

B8: Example 219 (peptide)
chain: YXQGTFTSDFSXXLDKKAQXAFIEYLIEXGESSGAPPPSGE
modifications: non-natural residues; lipidated Lys; C-terminal amide; synthetic construct; SITE 2: note = 2-Aminoisobutyric Acid; SITE 12: note = L-ornithine; SITE 13: note = alpha-methyl-leucine; SITE 17: note = Lysine is chemically modified through conjugation of the epsilon-amino group of the Lysine side chain with (2-[2-(2-Amino-ethoxy)-ethoxy]-acetyl)-(gamma-Glu)
For B8, the Relative cAMP EC50 in assay [1] came out at 7.77 nM; in assay [2] it was 0.119 nM; in assay [3], 0.835 nM.

B9: Example 160 (peptide)
chain: YXQGTFTSDFSXXLDKKAQXAFIEYLLEGGPSSGAPPPEGT
modifications: Aib, Orn, αMeL, acylated Lys, amide; synthetic construct; SITE 2: note = 2-Aminoisobutyric Acid; SITE 12: note = L-ornithine; SITE 13: note = alpha-methyl-leucine; SITE 17: note = Lysine is chemically modified through conjugation of the epsilon-amino group of the Lysine side chain with (2-[2-(2-Amino-ethoxy)-ethoxy]-acetyl)-(gamma-Glu)
For the molecule B9, the Relative cAMP EC50, nM (0.1% casein) in assay [1] worked out at 4.32 nM; in assay [2], 0.354 nM; in assay [3] it was 5.39 nM. Also, the cAMP Rel EC50, nM (1% HSA) in assay [1] was 479 nM; in assay [2], 44.4 nM; in assay [3], 482 nM.

B10: Example 195 (peptide)
chain: YXQGTFTSDFSXXLDKKAQXAFIEYLLEXGPSSGEPPPEGS
modifications: Lys acylated (AEEA)2-γGlu-C18 diacid; non-natural residues; C-terminal amide; synthetic construct; SITE 2: note = 2-Aminoisobutyric Acid; SITE 12: note = L-ornithine; SITE 13: note = alpha-methyl-leucine; SITE 17: note = Lysine is chemically modified through conjugation of the epsilon-amino group of the Lysine side chain with (2-[2-(2-Amino-ethoxy)-ethoxy]-acetyl)2-(gamma-Glu)
With B10, the Relative cAMP EC50, nM (0.1% casein) stood at 3.1 nM in assay [1], 0.145 nM in assay [2] and 6.13 nM in assay [3]. For the same molecule, the cAMP Rel EC50, nM (1% HSA) in assay [1] was determined as 605 nM; in assay [2], 28.8 nM; in assay [3], 829 nM.

B11: Example 191 (peptide)
chain: YXQGTFTSDXSXXLDKKAQXAFIEYLLEXGPSSGAPPPSGS
modifications: non-natural residues; lysine acylated AEEA-γGlu-C18 diacid; C-terminal amide; synthetic construct; SITE 2: note = 2-Aminoisobutyric Acid; SITE 10: note = 4-cyano-L-phenylalanine; SITE 12: note = L-ornithine; SITE 13: note = alpha-methyl-leucine; SITE 17: note = Lysine is chemically modified through conjugation of the epsilon-amino group of the Lysine side chain with (2-[2-(2-
For the molecule B11, the Relative cAMP EC50, nM (0.1% casein) in assay [1] came to 2.11 nM; in assay [2], 0.422 nM; in assay [3], 2.48 nM.

B12: Example 197 (peptide)
chain: YXQGTFTSDFSXXLDKKAQXAFIEYLLEGGPSSGAPPPGGT
modifications: non-natural residues; lipidated Lys; synthetic construct; SITE 2: note = 2-Aminoisobutyric Acid; SITE 12: note = L-ornithine; SITE 13: note = alpha-methyl-leucine; SITE 17: note = Lysine is chemically modified through conjugation of the epsilon-amino group of the Lysine side chain with (2-[2-(2-Amino-ethoxy)-ethoxy]-acetyl)-(gamma-Glu)
In the case of B12, the figures for the Relative cAMP EC50 in assay [1], in assay [2] and in assay [3] were 3.23 nM, 0.31 nM and 4.81 nM, respectively. The cAMP Rel EC50, nM (1% HSA) in assay [1] is 613 nM; in assay [2], 44.1 nM; in assay [3] it was 440 nM.

(Values after patent US20240270821A1, “GIP/GLP1/GCG TRI-RECEPTOR AGONISTS AND USES THEREOF” (priority 2023, published 2024).)
